Experimental data reported in the supplement of paper PMC9732359.
± gives the uncertainty stated by the source.

Assay: protein stability index of a GFP-peptide fusion (yeast GPS) (PSI 1-4); higher = more stable; sorted into four equal gates, so the index is relative within each strain
Procedure, shortened: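 Yeast carrying a pooled library were grown to mid-log phase in leucine-free medium. Each library plasmid expresses Cherry and has a tiled 17-residue yeast protein peptide fused downstream of GFP. Cells were sorted into four equal gates by GFP/Cherry ratio, and plasmids from each gate were PCR-amplified, Illumina-sequenced and assigned to strains by barcode. Summing, across gates, the read frequency times the gate number gave each peptide's protein stability index.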

Sequence | protein stability index (doa10∆) | protein stability index (pdr5∆) | protein stability index (san1∆) | protein stability index (ubr1∆)
PIRINSTEEIEYIELEY [YMR129W/POM152] | 2.45 ± 0.095 | 3.04 ± 0.09 | 2.68 ± 0.091 | 2.82 ± 0.039
PKAVVDHINGSGKRKPT [GAL11] | 2.25 ± 0.076 | 2.81 ± 0.064 | 1.52 ± 0.11 | 2.16 ± 0.079
PKDYIKKLLEVHDIFSK [CDC53] | 1.46 ± 0.042 | 2.04 ± 0.06 | 1.75 ± 0.099 | 1.66 ± 0.04
PKFFLGEENRVRFIGDS [QCR2] | 3.17 ± 0.1 | 3.15 ± 0.11 | 3.07 ± 0.073 | 3.2 ± 0.069
PKLKEGALHFVQQSEKL [YIL149C/MLP2] | 2.58 ± 0.064 | 2.33 ± 0.082 | 2.31 ± 0.066 | 2.88 ± 0.05
PKLKRIGLVKCTQMTDE [GRR1] | 2.95 ± 0.073 | 2.89 ± 0.076 | 2.81 ± 0.057 | 2.86 ± 0.047
PKMGVSSSSLECATCHG [RPO31] | 2.97 ± 0.085 | 3.34 ± 0.049 | 3.32 ± 0.097 | 3.2 ± 0.056
PKNFGIGQAVQPKRNLS [RPL8A] | 2.74 ± 0.064 | 2.74 ± 0.056 | 2.78 ± 0.043 | 2.69 ± 0.05
PKRKRRLPVSEDTNTKP [YOR098C/NUP1] | 3.16 ± 0.11 | 2.82 ± 0.13 |  | 2.97 ± 0.073
PKSKSLPNEMSQNDGFV [RPO31] | 3 ± 0.2 | 3.14 ± 0.14 | 3.38 ± 0.12 | 3.36 ± 0.11
PLGVILTFVSVDEELGP [SCL1] | 1.72 ± 0.039 | 1.9 ± 0.037 | 2.67 ± 0.052 | 2.46 ± 0.04
PLHLIFAQPVADIENST [SSN2] | 2.67 ± 0.078 | 2.51 ± 0.097 | 2.72 ± 0.13 | 2.67 ± 0.1
PLILTPPQLANQQQPPQ [SNF11] | 1.53 ± 0.066 | 1.93 ± 0.071 | 2.04 ± 0.093 | 2.15 ± 0.069
PLIMATCGSKGSTLNVS [RPO31] | 2.84 ± 0.12 | 2.05 ± 0.074 | 2.54 ± 0.1 | 2.23 ± 0.069
PLNKPLLTEELAKSGST [TAF14] | 2.25 ± 0.068 | 2.24 ± 0.064 | 2.94 ± 0.072 | 2.39 ± 0.054
PLPICHANSVVALTGLL [YML031W/NDC1] | 3.13 ± 0.12 | 1.73 ± 0.083 | 2.58 ± 0.099 | 2.5 ± 0.12
PLQNIHVRKVKLLKQPK [RPS1A] | 2.69 ± 0.075 | 2.82 ± 0.074 | 2.71 ± 0.051 | 2.53 ± 0.065
PLQSMDIEQLEYSRDCF [RPB3] | 3.16 ± 0.074 | 3.17 ± 0.068 | 3.21 ± 0.08 | 2.93 ± 0.11
PLSDLKKRSQAKMNAKT [RPC82] | 3.21 ± 0.08 | 3.4 ± 0.081 | 3.05 ± 0.066 | 3.32 ± 0.045
PLVAHLGLYVGVDDQIL [YJL039C/NUP192] | 2.42 ± 0.074 | 2.85 ± 0.12 | 2.26 ± 0.11 | 1.48 ± 0.13

Sequence | protein stability index (doa10∆) | protein stability index (pdr5∆) | protein stability index (san1∆) | protein stability index (ubr1∆)
PMLMANNDVFTIGPYRA [SSN3] | 3.04 ± 0.07 | 3.3 ± 0.082 | 3.13 ± 0.072 | 3.14 ± 0.058
PNALKPLSESLRLVDDD [RRP6] | 3.15 ± 0.091 | 3.34 ± 0.081 | 2.82 ± 0.093 | 3.23 ± 0.055
PNDSNDEKVTILVDSLT [SWI1] | 2.67 ± 0.057 | 2.81 ± 0.065 | 3.01 ± 0.071 | 3.06 ± 0.042
PNFTGIDKLMLSPSDQF [SSN2] | 1.39 ± 0.08 | 1.33 ± 0.068 |  | 1.61 ± 0.067
PNGEGSKTWETYEMRIH [RPS20] | 3.09 ± 0.091 | 3.35 ± 0.069 | 3.05 ± 0.095 | 3.33 ± 0.045
PNIVEIDLDNDEDDDED [DLS1] | 3.17 ± 0.084 | 3.29 ± 0.065 | 2.89 ± 0.1 | 3.04 ± 0.15
PNSGTATTGGFGANQAT [YGR119C/NUP57] | 2.12 ± 0.084 | 2.33 ± 0.07 | 2.12 ± 0.091 | 2.14 ± 0.067
PNTSDNNNNSNNHNMRN [SWI1] | 3.12 ± 0.053 | 3.02 ± 0.059 | 2.93 ± 0.046 | 3.15 ± 0.038
PPGTGKTLCARAVANRT [RPT1] | 1.26 ± 0.1 | 1.25 ± 0.19 | 1.37 ± 0.18 | 1.27 ± 0.12
PPGYEIEELDNPMVPSS [PRP8] | 2.42 ± 0.1 | 2.65 ± 0.066 | 3.26 ± 0.085 | 2.82 ± 0.049
PPQQTYHFPIFNKYADP [RPN4] | 2.52 ± 0.046 | 2.8 ± 0.042 | 2.59 ± 0.034 | 2.65 ± 0.03
PPSKHSTLTLSDSEDSD [ESC2] | 3.01 ± 0.15 | 2.82 ± 0.14 | 2.59 ± 0.071 | 2.64 ± 0.19
PQGFSSVERGRKRAHSL [REC8] | 3.38 ± 0.11 | 3.4 ± 0.12 | 3.36 ± 0.048 | 3.19 ± 0.067
PQPLFMEDPPSTVSGEL [YMR153W/NUP53] | 3.38 ± 0.2 | 3.64 ± 0.19 | 3.58 ± 0.11 | 3.12 ± 0.16
PQQAQMQQAQFQAQQAQ [SNF2] | 2.94 ± 0.062 | 3.04 ± 0.058 | 2.99 ± 0.055 | 3.1 ± 0.041
PQRLTVLRLATNKGPLA [MCD1] | 2.78 ± 0.099 | 2.39 ± 0.073 | 2.8 ± 0.074 | 2.42 ± 0.074
PQTTQMFQSQSQLQPQP [YDL088C/ASM4] | 2.7 ± 0.052 | 2.5 ± 0.039 | 2.65 ± 0.046 | 2.46 ± 0.03
PQYQYQRRYVIKEKVQF [ITC1] | 1.56 ± 0.069 | 1.88 ± 0.047 | 1.79 ± 0.095 | 1.47 ± 0.03
PRIQRADPVALYLGLKR [RPB5] | 1.82 ± 0.11 | 2.42 ± 0.1 |  | 2.28 ± 0.083
PRLEKLINEILLKSNDP [RGR1] | 1.68 ± 0.059 | 2.01 ± 0.045 | 1.75 ± 0.079 | 1.86 ± 0.039
